Assay results as given in the RNAGym collection of RNA variant scans (doi:10.7554/elife.90254).

B1: OR4K15 (parent)
chain: GUUAACGGUCAUAGGCCAUGGAAACUAGGAGCACCAUUUCGCUGCCAGUGAAGAAAUGAACAAAGAAAAUCUGGGCCAGGCAGGCAUCAAAAGAAAUAGUCUUGCGCUCAACCAGAAAGUCUGUAAUCAUUUUAAGGGUA

Variants of: B1
Experiment: self-cleavage, relative activity (ratio to wild type); higher = more cleavage; in vitro, sequencing; the parent is a self-cleaving ribozyme
Variant A24G U132C has a self-cleavage of 1.31.
In the case of A59U A91U, the self-cleavage is reported as 1.44.
Work on U12A A13G yielded a self-cleavage of 1.28.
A82G A86U showed a self-cleavage of 0.88.
With U108C U133A the self-cleavage was 0.01.
Variant A67G A116C has a self-cleavage of 0.26.
Variant A66G G83C has a self-cleavage of 0.2.
For U57C A140G, the self-cleavage was 1.11.
For C77U U132C, the self-cleavage was 1.95.
In the case of A56G U120G, the self-cleavage is reported as 1.98.
G28A gave a self-cleavage of 1.09.
A51G A68G gave a self-cleavage of 0.71.
For A114U A116G, the self-cleavage was 0.01.
U19C U103C showed a self-cleavage of 0.66.
U9C U130C showed a self-cleavage of 1.05.
C46U G138A gave a self-cleavage of 1.91.
A30G A68G gave a self-cleavage of 1.49.
With A5U G15A the self-cleavage was 1.04.
With A51U G83A the self-cleavage was 2.1.
Work on A11G C107G yielded a self-cleavage of 0.05.
For U57C C88U, the self-cleavage was 1.04.
Variant U26C G84A has a self-cleavage of 1.84.
With U39C A117G the self-cleavage was 1.95.
Variant A116G A126U has a self-cleavage of 1.04.
A67G A98U gave a self-cleavage of 1.26.
With G44U A66U the self-cleavage was 2.02.
U39C A59U gave a self-cleavage of 1.98.
For A52G G74A, the self-cleavage was 0.13.
A54U G115U gave a self-cleavage of 0.03.
In the case of U2A U38C, the self-cleavage is reported as 1.82.
Work on A22U U108C yielded a self-cleavage of 0.03.
Work on U72A C76U yielded a self-cleavage of 0.28.
Variant U102A U120A has a self-cleavage of 1.01.
A13G U57A gave a self-cleavage of 1.24.
Variant A24G U103A has a self-cleavage of 0.42.
Work on A67U A117G yielded a self-cleavage of 2.28.
Variant A23U A111G has a self-cleavage of 0.04.
Variant C81U U132C has a self-cleavage of 0.5.
With C6A A111G the self-cleavage was 0.08.
For A52G A126G, the self-cleavage was 0.47.
With U72A A126U the self-cleavage was 0.37.
Work on U72G A95G yielded a self-cleavage of 0.43.
In the case of A55G C128A, the self-cleavage is reported as 1.06.
In the case of U19A A33G, the self-cleavage is reported as 0.62.
A98G U132A gave a self-cleavage of 0.41.
Variant A59G C101A has a self-cleavage of 0.13.
A11G A30G gave a self-cleavage of 1.08.
A27G U87A showed a self-cleavage of 1.39.
U12C G84C showed a self-cleavage of 0.31.
Variant A52G A125G has a self-cleavage of 0.37.
In the case of U72A U120C, the self-cleavage is reported as 0.18.
Variant U57C A111U has a self-cleavage of 0.08.
U72G A95U showed a self-cleavage of 0.12.
In the case of A18G A82G, the self-cleavage is reported as 0.98.
Variant A18C A117G has a self-cleavage of 1.24.
A59G A125G showed a self-cleavage of 0.4.
Variant C6U U132C has a self-cleavage of 0.63.
Variant U39C A52G has a self-cleavage of 1.76.
Work on A54G A68U yielded a self-cleavage of 1.91.
With C25U U132C the self-cleavage was 1.36.
Work on A91G A92C yielded a self-cleavage of 0.76.
Variant A62G A110C has a self-cleavage of 0.34.
In the case of A110G G136A, the self-cleavage is reported as 0.09.
Variant A92G A110C has a self-cleavage of 0.26.
For U19A G137U, the self-cleavage was 1.52.
For A24G G65U, the self-cleavage was 1.3.
U39C A86U showed a self-cleavage of 2.13.
Variant G84C A89G has a self-cleavage of 0.34.
U122C showed a self-cleavage of 0.93.
Variant U39C A135G has a self-cleavage of 1.82.
In the case of U12A A52G, the self-cleavage is reported as 1.14.
A66C U127C showed a self-cleavage of 0.14.
With C32U C40U the self-cleavage was 2.05.
A5G A78U showed a self-cleavage of 0.46.
Work on A18U U37G yielded a self-cleavage of 1.12.
A5G A78G showed a self-cleavage of 0.43.
Variant A89U A118G has a self-cleavage of 1.61.
A11G A140G showed a self-cleavage of 0.96.
With U49A U57G the self-cleavage was 0.46.
A111G C112G gave a self-cleavage of 0.
With A68U A134G the self-cleavage was 1.78.
Variant A5U A52G has a self-cleavage of 1.18.
For U49G A60G, the self-cleavage was 0.64.
